The source of these data is patent publication US11819540B2, “Methods for treating and preventing neutrophil-derived net toxicity and thrombosis” (CHILDREN'S MEDICAL CENTER CORPORATION, priority 2011, dated 2023).

“Also recorded” adds a separate entry of the source.

This assay deals with blood clots (fibrin and NET scaffold). The assay is described as follows: Clot formation in recalcified blood with or without PAF-activated neutrophils (thrombolysis). The conditions noted are these: tPA 25 μg/mL. The format is cell-based, human. Here is the method: Fibrin polymerization was induced in blood by recalcification and incubated either in the absence (medium) or presence of neutrophils preactivated by PAF to induce NET formation (neutrophils+PAF). Samples were treated with DNase to digest extracellular traps or tPA for fibrin digestion. […] (Scale bar, 1 cm.) The graph presents quantification of the clots by weighing. […] Data are presented as mean±SEM, n=4; (ANOVA; ***P<0.001). The first bar in each x-axis category represents the untreated samples, the second bar represents the samples treated with DNase, the third bar represents the samples treated with tPA, and the fourth bar represents the samples treated with tPA and DNase.
The relative susceptibility of NETs and fibrin to serve as scaffolds for blood clots to thrombolysis was examined (FIG. 20). Neutrophils were prestimulated with platelet-activating factor to release NETs with recalcified blood under stirring conditions. Two-hundred-fifty microliters of 5×10^6 neutrophils per milliliter in RPMI medium were activated by platelet activating factor (50 μM Calbiochem) at 37° C. under static conditions to induce NET formation. Control samples were 250 μL medium alone, 250 μL of unstimulated neutrophils, or 250 μL of 50 μM PAF in medium. After 10 min, 250 μL of recalcified (40 mM CaCl2) ACD anticoagulated blood was added. The mixture was incubated under stirring conditions (1,000 rpm) at 37° C. using an Eppendorf Thermomixer. Indicated samples were supplemented with tPA (25 μg/mL, Baxter) or DNase 1 (100 U/mL, Worthington Biochem). After 20 min, the blood was passed through a 100-μm cell strainer to isolate the clot. Images were acquired and the clot was determined. Thereafter, 10-μm frozen sections of the clot were prepared and stained for fibrinogen (mouse-antihuman-fibrinogen, Sigma) and VWF (rabbit-antihuman-VWF, Chemicon). Isotype control antibodies were used to determine background staining and DNA was labeled fluorescently by Hoechst 33258 (Invitrogen).

B1: tPA: tissue plasminogen activator (25 μg/mL, Baxter) for fibrin digestion (protein, UniProt P00750 36-562, looked up)
Tissue-type plasminogen …: SYQVICRDEKTQMIYQQHQSWLRPVLRSNRVEYCWCNSGRAQCHSVPVKSCSEPRCFNGGTCQQALYFSDFVCQCPEGFAGKCCEIDTRATCYEDQGISYRGTWSTAESGAECTNWNSSALAQKPYSGRRPDAIRLGLGNHNYCRNPDRDSKPWCYVFKAGKYSSEFCSTPACSEGNSDCYFGNGSAYRGTHSLTESGASCLPWNSMILIGKVYTAQNPSAQALGLGKHNYCRNPDGDAKPWCHVLKNRRLTWEYCDVPSCSTCGLRQYSQPQFRIKGGLFADIASHPWQAAIFAKHRRSPGERFLCGGILISSCWILSAAHCFQERFPPHHLTVILGRTYRVVPGEEEQKFEVEKYIVHKEFDDDTYDNDIALLQLKSDSSRCAQESSVVRTVCLPPADLQLPDWTECELSGYGKHEALSPFYSERLKEAHVRLYPSSRCTSQHLLNRTVTDNMLCAGDTRSGGPQANLHDACQGDSGGPLVCLNDGRMTLVGIISWGLGCGQKDVPGVYTKVTNYLDWIRDNMRP
As to B1, under “absence of activated neutrophils (medium), DNase 100 U/mL”, the clot formation entry is recorded as “prevented clot formation”. For the same molecule, the fibrin in clot entry (presence of PAF-activated neutrophils) was “removed fibrin”. Moreover, the “clot formation / clot size” value (presence of PAF-activated neutrophils, DNase 100 U/mL) is listed as “did not prevent clot formation; also recorded: reduced clot size”.
